Experimental findings from the Immune Epitope Database (IEDB) are described below.

pKd: −log10 of the molar value. Some results are limits rather than exact numbers.

One assay deals with HLA-A*02:01. The experiment in a line: IEDB peptide-MHC binding, purified MHC/competitive/radioactivity; filed as Kd, often an IC50 or EC50 that approximates it; ≥ and ≤ were set here for values at or beyond the usual limits of such assays. The following applies: source organism: Homo sapiens.
For another assay, the target named is HLA-A*02:02. The description is as above.
The target in another assay is HLA-A*02:03. Described as above.
A further assay has as its target HLA-A*68:02. Described as above.
A further assay deals with HLA-B*18:01. The experiment in a line: IEDB peptide-MHC binding, purified MHC/direct/fluorescence; filed as Kd, often an IC50 or EC50 that approximates it; ≥ and ≤ were set here for values at or beyond the usual limits of such assays.
The target of a further assay is HLA-B*40:01. The description is as above.
For a further assay, the target named is HLA-B*53:01. The experiment in a line: IEDB peptide-MHC binding, purified MHC/competitive/radioactivity; filed as Kd, often an IC50 or EC50 that approximates it; ≥ and ≤ were set here for values at or beyond the usual limits of such assays.
A further assay addresses HLA-B*07:02. Described as above.
Another assay has as its target HLA-B*51:01. The description is as above.
For another assay, the target named is HLA-B*54:01. The description is as above.
The target in another assay is HLA-B*35:01. The description is as above.
The target of a further assay is HLA-A*02:06. The assay is described as above.
The target in the next assay is HLA-A*26:01. The description is as above. The note with it: source organism: Dengue virus 3 Sri Lanka/1266/2000.
A further assay has as its target HLA-A*33:01. The description is as above. The following applies: source organism: Vaccinia virus Copenhagen.
In the next assay the target is HLA-A*31:01. The assay is described as above. The following applies: source organism: Vaccinia virus Copenhagen.
The target in the next assay is HLA-A*03:01. The description is as above. The note with it: source organism: Vaccinia virus Copenhagen.
A further assay deals with HLA-A*11:01. Described as above. The following applies: source organism: Vaccinia virus Copenhagen.
Another assay deals with HLA-A*68:01. The description is as above. The note with it: source organism: Vaccinia virus Copenhagen.
The target of a further assay is HLA-B*44:02. The experiment in a line: IEDB peptide-MHC binding, purified MHC/direct/fluorescence; filed as Kd, often an IC50 or EC50 that approximates it; ≥ and ≤ were set here for values at or beyond the usual limits of such assays. The note with it: source organism: Orthohantavirus andesense.
Where [1] appears, read: source organism: Mammarenavirus lassaense.
The mark [2] stands for this setting: source organism: Vaccinia virus WR.
[3] abbreviates: source organism: Triticum aestivum.
Setting [4] is: source organism: SARS coronavirus Tor2.
[5] abbreviates: source organism: Human alphaherpesvirus 2.
Setting [6] is: source organism: Lymphocytic choriomeningitis virus (strain Armstrong).
Setting [7] is: source organism: Orthohantavirus dobravaense.
The mark [8] stands for this setting: source organism: Vaccinia virus Copenhagen.
Setting [9] is: source organism: Orthohantavirus andesense.

Regarding QLYKEQLAKL, the pKd (as a rule, the Kd on a negative log10 scale, so that one unit is a factor of ten) was 7.11 with HLA-A*02:01, 8.33 with HLA-A*02:02 (source organism: Homo sapiens), 7.79 with HLA-A*02:03 (source organism: Homo sapiens) and 5.12 with HLA-A*68:02 (source organism: Homo sapiens).

With VENSPRASL, the pKd with HLA-B*18:01 (setting [1]) is 6.26; in the assay with HLA-B*40:01 (setting [1]), 6.95.

On to IPEISSNDNA, for which the pKd in the assay with HLA-B*53:01 (setting [2]) was 5.62; with HLA-B*07:02 (setting [2]) it was not above 4.16; with HLA-B*51:01 (setting [2]), not above 4.16; in the assay with HLA-B*54:01 (setting [2]) it was 5.34; with HLA-B*35:01 (setting [2]) it was not above 4.16.

For QPQLPYPQPQL, the pKd is not above 4.20 with HLA-B*53:01 (setting [3]); 5.02 in the assay with HLA-B*07:02 (setting [3]); 6.45 with HLA-B*51:01 (setting [3]); not above 4.20 in the assay with HLA-B*54:01 (setting [3]); not above 4.39 with HLA-B*35:01 (setting [3]).

Turning to ELNDRLAVYI, the pKd was not above 4.52 with HLA-A*02:06 (source organism: Homo sapiens); 5.94 with HLA-A*02:01; 6.87 in the assay with HLA-A*02:02 (source organism: Homo sapiens); 5.91 with HLA-A*02:03 (source organism: Homo sapiens); 7.30 in the assay with HLA-A*68:02 (source organism: Homo sapiens).

In the case of MPKDGLKVL, the pKd with HLA-B*53:01 (setting [1]) is 5.63; with HLA-B*07:02 (setting [1]), 6.10; with HLA-B*51:01 (setting [1]) it was 5.19; with HLA-B*54:01 (setting [1]), 7.02; in the assay with HLA-B*35:01 (setting [1]), 6.38.

As to DMKKKMEDSV, the pKd in the assay with HLA-A*02:06 (source organism: Homo sapiens) was not above 4.14; with HLA-A*02:01 it was 4.82.

On to FPQVGGLTSI, for which the pKd is 7.62 with HLA-B*53:01 (setting [4]); 6.79 with HLA-B*07:02 (setting [4]); 7.11 in the assay with HLA-B*51:01 (setting [4]); 7.59 with HLA-B*54:01 (setting [4]); 6.22 with HLA-B*35:01 (setting [4]).

On to CPQKKKSQA, for which the pKd with HLA-B*53:01 (setting [2]) is not above 4.11; with HLA-B*07:02 (setting [2]), 6.98; with HLA-B*51:01 (setting [2]), not above 4.11; with HLA-B*54:01 (setting [2]), 7.18; with HLA-B*35:01 (setting [2]), not above 4.11.

On to APAWSRRTL, for which the pKd is 5.45 with HLA-B*53:01 (setting [5]); 9.72 with HLA-B*07:02 (setting [5]); not above 4.23 with HLA-B*51:01 (setting [5]); 5.25 with HLA-B*54:01 (setting [5]); 5.49 with HLA-B*35:01 (setting [5]).

MPSLTMACM: the pKd in the assay with HLA-B*53:01 (setting [6]) is 5.67; with HLA-B*07:02 (setting [6]) it was 6.95; with HLA-B*51:01 (setting [6]) it was 6.06; with HLA-B*54:01 (setting [6]) it was 5.89; with HLA-B*35:01 (setting [6]), 8.26.

As for ETYQLWTALV, the pKd was 10.15 in the assay with HLA-A*68:02 (source organism: Dengue virus 3 Sri Lanka/1266/2000) and 7.25 with HLA-A*26:01.

In the case of SEVTTCFFL, the negative logarithm of the Kd (pKd) in the assay with HLA-B*18:01 (setting [7]) was 7.31; with HLA-B*40:01 (setting [7]), 7.90.

On to LILSCIFAFI, for which the pKd with HLA-A*02:06 (setting [8]) was 7.37; with HLA-A*33:01, 5.73; with HLA-A*31:01, 6.60; with HLA-A*03:01 it was 6.02; in the assay with HLA-B*53:01 (setting [8]) it was 5.74; in the assay with HLA-A*02:02 (setting [8]) it was 8.28. Moreover, the pKd in the assay with HLA-A*11:01 was 5.24; with HLA-A*02:03 (setting [8]), 7.70; with HLA-B*07:02 (setting [8]) it was not above 4.16; with HLA-B*51:01 (setting [8]), 4.76; with HLA-A*68:02 (setting [8]) it was 7.76; in the assay with HLA-B*54:01 (setting [8]), 5.82. Moreover, the negative logarithm of the Kd (pKd) with HLA-A*68:01 is 6.18; with HLA-B*35:01 (setting [8]), not above 4.44.

As for GSFGDIYLA, in the assay with HLA-A*02:01, the pKd was 6.63.

Take YEGDLRVTF: the values for the pKd with HLA-B*44:02, with HLA-B*18:01 (setting [9]) and with HLA-B*40:01 (setting [9]) were 5.37, not below 9.00 and 8.08, respectively.
